The values below come from US20180291107A1 (Eli Lilly, published 2018).

The target of assay [1] is T1, mouse CSF-1R (mouse, UniProt P09581 20-511, limits assumed).
T1 construct: also called murine target protein (of the CSF-1R antibody); murine CSF-1R
T1 sequence (looked up): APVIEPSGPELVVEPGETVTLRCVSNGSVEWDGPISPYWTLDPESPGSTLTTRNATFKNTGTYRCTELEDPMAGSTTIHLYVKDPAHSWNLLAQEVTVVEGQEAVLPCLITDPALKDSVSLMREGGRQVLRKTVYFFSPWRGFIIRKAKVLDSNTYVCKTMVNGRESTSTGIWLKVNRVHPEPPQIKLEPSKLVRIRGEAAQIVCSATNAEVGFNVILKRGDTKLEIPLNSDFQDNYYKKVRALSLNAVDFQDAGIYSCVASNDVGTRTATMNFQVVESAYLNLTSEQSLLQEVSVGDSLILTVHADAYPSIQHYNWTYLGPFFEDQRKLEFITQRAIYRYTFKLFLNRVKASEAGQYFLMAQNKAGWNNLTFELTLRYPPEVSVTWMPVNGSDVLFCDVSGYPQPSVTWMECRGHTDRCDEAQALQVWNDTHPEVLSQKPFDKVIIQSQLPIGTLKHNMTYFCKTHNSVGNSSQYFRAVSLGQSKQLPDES
Nature of the assay: not described.

Assay [2] deals with T2, mouse PD-L1 (mouse, UniProt Q9EP73 19-238, limits assumed).
T2 construct: also called murine target protein (of the PD-L1 antibody); murine PD-L1
T2 sequence (Q9EP73 19-238 limits assumed): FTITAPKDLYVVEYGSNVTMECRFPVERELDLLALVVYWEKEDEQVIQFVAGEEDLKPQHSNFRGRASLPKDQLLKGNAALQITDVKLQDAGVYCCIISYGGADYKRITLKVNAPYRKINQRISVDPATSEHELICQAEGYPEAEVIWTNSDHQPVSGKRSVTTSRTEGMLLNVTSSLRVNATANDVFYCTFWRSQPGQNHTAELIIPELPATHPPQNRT
Nature of the assay: not described.

The target in assay [3] is T3, Soluble human PD-L1-Fc fusion protein (human, UniProt Q9NZQ7 19-239, limits assumed).
T3 construct: not shown: Fc part
T3 sequence (Q9NZQ7 19-239 limits assumed): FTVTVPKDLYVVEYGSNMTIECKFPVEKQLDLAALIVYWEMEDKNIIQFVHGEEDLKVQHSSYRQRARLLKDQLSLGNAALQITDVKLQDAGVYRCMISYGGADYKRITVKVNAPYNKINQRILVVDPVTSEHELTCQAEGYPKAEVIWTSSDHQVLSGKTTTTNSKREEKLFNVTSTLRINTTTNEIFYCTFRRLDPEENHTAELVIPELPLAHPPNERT
Nature of the assay: SPR (Biacore T200), antibody immobilised, PD-L1-Fc as analyte, 37 C, 1:1 model. The protocol:
The kinetics and equilibrium dissociation constant (KD) for human PD-L1 is determined for anti-PD-L1 antibodies of the present invention using surface plasmon resonance (Biacore).
Immobilization of anti-PD-L1 antibodies of the present invention as ligand on to sensor chip surface is performed at 25° C. Soluble human PD-L1-Fc fusion protein is injected as analyte at concentrations ranging from 0.0123 nM-9 nM. The analysis is performed at 37° C. The contact time for each sample is 180 sec at 30 μl/min. The dissociation time was 240-1500 seconds. The immobilized surface is regenerated for 18 seconds with 0.95 M NaCl/25 mM NaOH at […], and then stabilized for 30 seconds. Binding kinetics are analyzed using the Biacore T200 Evaluation software (Version 3.0). Data are referenced to a blank flow cell, and the data are fit to a 1:1 binding model.

B1: Antibody 1 (antibody, human IgG1, kappa, V domains shown)
VH: QDQLVESGGGVVQPGRSLRLSCAASGFTFSSYGMHWVRQAPGEGLEWVAVIWYDGSNKYYADSVKGRFTISRDNSKNTLYLQMNSLRAEDTAVYYCARGDYEVDYGMDVWGQGTTVTVAS
VL: AIQLTQSPSSLSASVGDRVTITCRASQGISNALAWYQQKPGKAPKLLIYDASSLESGVPSRFSGSGSGTDFTLTISSLQPEDFATYYCQQFNSYPWTFGQGTKVEIKR
notes: also called Anti-CSF-1R antibody
For the molecule B1, the binding result in assay [1] is given as “no binding”.

B2: CS7 (antibody, V domains shown)
VH: DRQMVESGGGLVRPGRSLKLSCAASGFTFSNYYMAWVRLAPSKGLEWVASISPSGDNTYYPDSVQGRFTISRDNAETTLYLQVDSLRSEDTATYYCATRHYGYSFFDYWGQGVLVTVSS
VL: DTVLTQSPALAVSPGERVTISCRASESVSTLIHWYQQKPGQQPKLLIFLASHLESGVPARFSGSGSGTDFTFTIDPVEADDTATYYCQQSWNDPPTFGGGTKLELK
notes: Rat antibody generated from a hybridoma; also called IMC-CS7; rat anti-mouse CSF-1R antibody
Regarding B2, in assay [1], the binding result was “binds”.

B3: Antibody A (antibody, human IgG1, lambda, V domains shown)
VH: QVQLVQSGAEVKKPGSSVKVSCKASGGTFSSYAISWVRQAPGQGLEWMGGIIPIFGTANYAQKFQGRVTITADKSTSTAYMELSSLRSEDTAVYYCARSPDYSPYYYYGMDVWGQGTTVTVSS
VL: QSVLTQPPSASGTPGQRVTISCSGSSSNIGSNTVNWYQQLPGTAPKLLIYGNSNRPSGVPDRFSGSKSGTSASLAISGLQSEDEADYYCQSYDSSLSGSVFGGGIKLTVLG
notes: also called Anti-PD-L1 antibody
In the case of B3, the binding result in assay [2] was “no binding”. Also, in assay [3], the Kd worked out at 0.082 nM.

By Kd is commonly meant a measure of binding affinity in units of concentration. Low values mean higher affinity, high ones lower affinity.
